Reference: patent publication US20170129962A1 (Hoffmann-La Roche, published 2017)
Positions count from the first letter of the chain named. Names may count otherwise.

T1: human Ang-2-RBD-Fc (human, UniProt O15123 275-496, limits assumed)
T1 construct: domain: RBD; Analyte in solution; not shown: Fc part
T1 sequence (looked up): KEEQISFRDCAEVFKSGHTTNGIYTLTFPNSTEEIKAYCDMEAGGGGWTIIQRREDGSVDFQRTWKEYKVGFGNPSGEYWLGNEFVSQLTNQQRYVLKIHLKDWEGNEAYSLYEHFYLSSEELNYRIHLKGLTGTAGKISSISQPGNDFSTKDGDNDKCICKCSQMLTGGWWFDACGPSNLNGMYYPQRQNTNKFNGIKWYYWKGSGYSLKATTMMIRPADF

T2: human VEGFA-121 (VEGF-A-121-His) (human, UniProt P15692-9 27-147)
T2 construct: Captured on the chip through an anti-His antibody; not shown: His tag
T2 sequence (looked up): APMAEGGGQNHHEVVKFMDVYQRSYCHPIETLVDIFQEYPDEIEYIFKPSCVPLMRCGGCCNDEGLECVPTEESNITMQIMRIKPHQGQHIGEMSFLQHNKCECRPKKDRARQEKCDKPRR

B1: Ang2VEGF-0464 (bispecific antibody, human IgG1, kappa)
light 1: QPGLTQPPSVSVAPGQTARITCGGNNIGSKSVHWYQEKPGQAPVLVVYDDSDRPSGIPERFSGSNSGNTATLTISRVEAGDEADYYCQVWDSSSDHYVFGTGTKVTVLRTVAAPSVFIFPPSDKKLKSGTASVVCLLNNFYPREAKVQWKVDNALQSGNSQESVTEQDSKDSTYSLSSTLTLSKADYEKHKVYACEVTHQGLSSPVTKSFNRGEC
heavy 1: not shown
light 2: DIQMTQSPSSLSASVGDRVTITCSASQDISNYLNWYQKKPGKAPKVLIYFTSSLHSGVPSRFSGSGSGTDFTLTISSLQPEDFATYYCQQYSTVPWTFGQGTKVEIKSSASTKGPSVFPLAPSSKSTSGGTAALGCLVKDYFPEPVTVSWNSGALTSGVHTFPAVLQSSGLYSLSSVVTVPSSSLGTQTYICNVNHKPSNTKVDKKVEPKSC
heavy 2: not shown
notes: CrossMAb CH1-CL, knob-into-hole with S354C/Y349C; also called Ang2VEGF-0464-0002
B2: Ang2VEGF-0465 (bispecific antibody, human IgG1, kappa)
light 1: B1 light 1 with E37K
heavy 1: not shown
light 2: B1 light 2
heavy 2: not shown
notes: CrossMAb CH1-CL, knob-into-hole with S354C/Y349C; also called Ang2VEGF-0465-0002
B3: Ang2VEGF-0466 (bispecific antibody, human IgG1, kappa)
light 1: B1 light 1 with E37K
heavy 1: not shown
light 2: B1 light 2
heavy 2: not shown
notes: CrossMAb CH1-CL, knob-into-hole with S354C/Y349C; also called Ang2VEGF-0466-0002
B4: Ang2VEGF-0474 (bispecific antibody, human IgG1, kappa)
light 1: B1 light 1 with E37Q, K124E
heavy 1: not shown
light 2: B1 light 2 with K38Q
heavy 2: not shown
notes: CrossMAb CH1-CL, knob-into-hole with S354C/Y349C
B5: Ang2VEGF-0475 (bispecific antibody, human IgG1, kappa)
light 1: B1 light 1 with E37Q, K124E, K125E
heavy 1: not shown
light 2: B1 light 2 with K38Q
heavy 2: not shown
notes: as for B4
B6: Ang2VEGF-0476 (bispecific antibody, human IgG1, kappa)
light 1: B1 light 1 with E37Q, K124E, K125E
heavy 1: not shown
light 2: B1 light 2 with K38Q, K205E
heavy 2: not shown
notes: as for B4
B7: Ang2VEGF-0477 (bispecific antibody, human IgG1, kappa)
light 1: B1 light 1 with E37Q, K124E
heavy 1: not shown
light 2: B1 light 2 with K38Q
heavy 2: not shown
notes: as for B4

What was measured:
human Ang-2-RBD-Fc [1] = molecular target: T1, human Ang-2-RBD-Fc; assay: SPR (Biacore T200), bispecific antibody captured by anti-human F(ab')2, Ang2-RBD-Fc as analyte, 1:1 Langmuir
Description: (§1) Binding of indicated antibodies to human Ang-2-RBD-Fc was investigated by surface plasmon resonance using a BIACORE® T200 instrument (GE Healthcare). Around 8000 (RU) of goat anti human F(ab′)₂ (10 μg/ml anti human F(ab)′₂; Order Code: 28958325; GE Healthcare Bio-Sciences AB, Sweden) were coupled on a Series S CMS chip (GE Healthcare BR-1005-30) at pH 5.0 by using an amine coupling kit supplied by the GE Healthcare. HBS-N (10 mM HEPES, 150 mM NaCl pH 7.4, GE Healthcare) was used as running buffer during the immobilization procedure. For the following kinetic characterization, sample and running buffer was PBS-T (10 mM phosphate buffered saline including 0.05% Tween20) at pH 7.4. The flow cell was set to 25° C.—and the sample block set to 12° C.—and primed with running buffer twice prior to kinetic characterization.
(§2) The bispecific antibody was captured by injecting a 5 nM solution for 25 sec at a flow of 5 μl/min. The association was measured by injection of human Ang2-RBD-Fc in various concentrations in solution for 120 sec at a flow of 30 μl/min starting with 100 nM in 1:3 serial dilutions. The dissociation phase was monitored for up to 180 sec and triggered by switching from the sample solution to running buffer. The surface was regenerated by 60 sec washing with a Glycine pH 2.1 solution at a flow rate of 30 μl/min. Bulk refractive index differences were corrected by subtracting the response obtained from a goat anti human F(ab′)₂ surface. Blank injections are also subtracted (=double referencing). For calculation of apparent KD the Langmuir 1:1 model was used.
(§3) Binding of the multispecific antibodies to their respective target antigens, i.e. ANG2 and VEGF, was assessed by Biacore® as described in the general methods section.

[2] = molecular target: T2, human VEGFA-121 (VEGF-A-121-His); assay: SPR (Biacore T200), VEGF-A-121-His captured by anti-His antibody, bispecific antibody as analyte, 1:1 Langmuir
Description: Around 10000 (RU) of anti His antibody (1 μg/ml anti His antibody; Order Code: 28995056; GE Healthcare Bio-Sciences AB, Sweden) were coupled on a Series S CM5 chip (GE Healthcare BR-1005-30) at pH 5.0 by using an amine coupling kit supplied by the GE Healthcare. HBS-N (10 mM HEPES, 150 mM NaCl pH 7.4, GE Healthcare) was used as running buffer during the immobilization procedure. For the following kinetic characterization, sample and running buffer was PBS-T (10 mM phosphate buffered saline including 0.05% Tween20) at pH 7.4. The flow cell was set to 25° C.—and the sample block set to 12° C.—and primed with running buffer twice prior to kinetic characterization.
as §3

human Ang-2-RBD-Fc [3] = molecular target: T1, human Ang-2-RBD-Fc; assay: SPR (Biacore T200), bispecific antibody captured by anti-human F(ab')2, Ang2-RBD-Fc as analyte, 1:1 Langmuir, apparent KD
Description: as §1, §2

Binder | koff (human Ang-2-RBD-Fc [1]) [s⁻¹] | kon (human Ang-2-RBD-Fc [1]) [M⁻¹ s⁻¹] | Kd [2] [nM] | koff [2] [s⁻¹] | kon [2] [M⁻¹ s⁻¹] | Kd (human Ang-2-RBD-Fc [3]) [nM]
B1 | 0.0172 | 8.81e+06 | 5 | 7.54e-05 | 16600 | 2
B2 | 0.0325 | 1.17e+07 | 5 | 7.96e-05 | 16000 | 3
B3 | 0.031 | 1.06e+07 | 4 | 8.01e-05 | 18600 | 3
B4 | 0.0097 | 2.04e+06 | 3 | 5.41e-05 | 21300 | 5
B5 | 0.00505 | 1.38e+06 | 7 | 7.26e-05 | 10500 | 4
B6 | 0.0114 | 1.32e+06 | 4 | 6.94e-05 | 18500 | 9
B7 | 0.00823 | 2.19e+06 | 3 | 6.1e-05 | 19500 | 4
